Laboratory results: US20050239140A1 (Janssen / Centocor, published 2005)

T1: murine Tissue Factor in murine brain extracts (murine, UniProt P20352 29-294)
T1 sequence (looked up): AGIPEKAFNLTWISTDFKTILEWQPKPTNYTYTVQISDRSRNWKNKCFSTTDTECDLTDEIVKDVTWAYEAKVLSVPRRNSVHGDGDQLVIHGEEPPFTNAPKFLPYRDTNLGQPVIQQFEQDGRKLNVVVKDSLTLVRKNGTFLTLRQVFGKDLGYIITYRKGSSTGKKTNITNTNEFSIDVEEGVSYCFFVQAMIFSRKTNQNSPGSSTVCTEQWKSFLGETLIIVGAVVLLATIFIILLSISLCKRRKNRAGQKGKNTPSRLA

T2: murine Tissue Factor on B6F10 melanoma cells (murine, UniProt P20352 29-294)
T2 construct: whole, on cells; also called cell-associated mTF
T2 sequence (looked up): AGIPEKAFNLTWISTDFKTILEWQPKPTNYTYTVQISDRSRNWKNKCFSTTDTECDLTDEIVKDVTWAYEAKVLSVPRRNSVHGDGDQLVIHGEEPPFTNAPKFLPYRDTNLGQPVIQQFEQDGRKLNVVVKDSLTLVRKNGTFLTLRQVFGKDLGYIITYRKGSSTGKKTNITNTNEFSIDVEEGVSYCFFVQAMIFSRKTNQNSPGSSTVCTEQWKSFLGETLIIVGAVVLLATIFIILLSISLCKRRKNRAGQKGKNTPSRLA


Experiments:
[1] = biological target: T1, murine Tissue Factor in murine brain …; experiment: cell-based or functional assay
[2] = biological target: T2, murine Tissue Factor on B6F10 melanoma …; experiment: FACS on B6F10 melanoma cells that express mTF

EC50 Conc. (ug/ml), inhibition of fibrin clot formation in human plasma with murine brain extracts as source of mTF [1]	EC50 [2]	Binder
0.23 µg/mL	–	PHD126 Fab (Fab, V domains shown) VH: QVQLVQSGAEVKKPGESLKISCKGSYSFSNYWIGWVRQMPGKGLEWMGFIDPDDSDTNYSPSFQGQVTISADKSISTAYLQWSSLKASDTAMYYCARALYMQGGSFDSWGQGTLVTVSS VL: DIELTQPPSVSVAPGQTARISCSGDNLGSYYVSWYQQKPGQAPVLVIYRDTDRPSGIPERFSGSNSGNTATLTISGTQAEDEADYYCQSYDYGVSNQVFGGGTKLTVLG
0.82 µg/mL	4.35 nM	PHD127 Fab (Fab, V domains shown, HuCAL Fab; The assignment of 8 (VH) and 9 (VL) to PHD127 follows the order of listing) VH: QVQLVQSGAEVKKPGESLKISCKGSYSFTNSWISWVRQMPGKGLEWMGIIDPDDSYTSYSPSFQGQVTISADKSISTAYLQWSSLKASDTAMYYCARGAGYGRMFGDVWGQGTLVTVSS VL: DIELTQPPSVSVAPGQTARISCSGDNLGSYYASWYQQKPGQAPVLVIYQDDNRPSGIPERFSGSNSGNTATLTISGTQAEDEADYYCGAYTYSTSWVFGGGTKLTVLG
23.8 µg/mL	–	PHD104 Fab (Fab, V domains shown) VH: QVQLVQSGAEVKKPGESLKISCKGSYSFTSNWIGWVRQMPGKGLEWMGWIYPSDSMTRYSPSFQGQVTISADKSISTAYLQWSSLKASDTAMYYCARYLFGLFDNWGQGTLVTVSS VL: DIELTQPPSVSVAPGQTARISCSGDNLGSYYVSWYQQKPGQAPVLVIYNDNNRPSGIPERFSGSNSGNTATLTISGTQAEDEADYYCATYDSSTDVFGGGTKLTVLG
63.3 µg/mL	–	PHD103 Fab (Fab, V domains shown) VH: QVQLVQSGAEVKKPGESLKISCKGSGYSFSNSWIAWVRQMPGKGLEWMGGIIGPGHSYTKYSPSFQGQVTISADKSISTAYLQWSSLKASDTAMYYCARINMGYFDYWGQGTLVTVSS VL: DIELTQPPSVSVAPGQTARISCSGDSLGLKKFVSWYQQKPGQAPVLVIYDDSNRPSGIPERFSGSNSGNTATLTISGTQAEDEADYYCGTYDQTIGHDVVFGGGTKLTVLG
